Assay results as given in paper PMC11475706, “ProEnd: a comprehensive database for identifying HbYX motif-containing proteins across the tree of life” (BMC Genomics, 2024).

Biological target: T1, PAN-2 (MJ1494), HbYX ATPase from Methanocaldococcus jannaschii (Methanocaldococcus jannaschii, UniProt Q58889 1-371)
T1 construct: PAN-2 (MJ1494), Methanocaldococcus jannaschii, UniProt Q58889; The hexameric state is only an AlphaFold Multimer prediction, not a measurement; also called putative 26S proteasome regulatory subunit; source: E. coli BL21 star DE3 (pET-28a(+), IPTG), held on Ni-NTA agarose from clarified lysate and washed; not shown: His6, N-terminal, kept
T1 sequence (looked up): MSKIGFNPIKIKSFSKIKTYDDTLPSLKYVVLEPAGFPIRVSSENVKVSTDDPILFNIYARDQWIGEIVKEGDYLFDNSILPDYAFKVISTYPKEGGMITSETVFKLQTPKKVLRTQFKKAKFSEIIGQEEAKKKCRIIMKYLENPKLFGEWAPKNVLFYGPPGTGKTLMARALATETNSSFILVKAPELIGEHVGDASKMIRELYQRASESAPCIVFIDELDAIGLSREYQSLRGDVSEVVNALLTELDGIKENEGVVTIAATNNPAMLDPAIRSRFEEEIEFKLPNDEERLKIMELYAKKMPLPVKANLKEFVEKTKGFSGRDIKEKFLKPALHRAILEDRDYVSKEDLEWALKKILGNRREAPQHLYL
Assay: pull-down; 6His-PAN-2 held on Ni-NTA agarose, washed with 50 mM Tris, 100 mM NaCl, 2 mM ATP, 10 mM MgCl2; tagless T20S incubated 20 min at room temperature; washed; eluted with 150 mM imidazole; T20S in the eluate quantified by suc-LLVY-amc hydrolysis; control: Ni-NTA columns with T20S alone
Conditions: both partners purified

fold T20S pulled down against control Ni-NTA columns: 7 fold
B1: T20S proteasome (20S from Thermoplasma acidophilum) (complex)
chain 1: MQQGQMAYDRAITVFSPDGRLFQVEYAREAVKKGSTALGMKFANGVLLISDKKVRSRLIEQNSIEKIQLIDDYVAAVTSGLVADARVLVDFARISAQQEKVTYGSLVNIENLVKRVADQMQQYTQYGGVRPYGVSLIFAGIDQIGPRLFDCDPAGTINEYKATAIGSGKDAVVSFLEREYKENLPEKEAVTLGIKALKSSLEEGEELKAPEIASITVGNKYRIYDQEEVKKFL
chain 2: TTTVGITLKDAVIMATERRVTMENFIMHKNGKKLFQIDTYTGMTIAGLVGDAQVLVRYMKAELELYRLQRRVNMPIEAVATLLSNMLNQVKYMPYMVQLLVGGIDTAPHVFSIDAAGGSVEDIYASTGSGSPFVYGVLESQYSEKMTVDEGVDLVIRAISAAKQRDSASGGMIDVAVITRKDGYVQLPTDQIESRIRKLGLIL
notes: proteasome subunit alpha, Thermoplasma acidophilum; proteasome subunit beta, Thermoplasma acidophilum; The C-terminal 6His tag on the beta subunits is preceded by a TEV site, so residues of that site probably stay at the beta C-terminus after the cut (surmise); also called archaeal proteasome T20S; archaeal 20S proteasome; source: recombinant, expressed from pET-28a(+), purified (Ni-NTA, TEV cut, …)
